Source: patent US9618524B2, “Method, composition, isolation and identification of a plaque particle and related biomarker” (Plaxgen Inc., priority 2012, dated 2017)

B1: Coagulation factor XIII B chain (protein)
chain: EEKPCGFPHVENGRIAQYYYTFKSFYFPMSIDKKLSFFCLAGYTTESGRQEEQTTCTTEGWSPEPRCFKKCTKPDLSNGYISDVKLLYKIQENMRYGCASGYKTTGGKDEEVVQCLSDGWSSQPTCRKEHETCLAPELYNGNYSTTQKTFKVKDKVQYECATGYYTAGGKKTEEVECLTYGWSLTPKCTKLKCSSLRLIENGYFHPVKQTYEEGDVVQFFCHENYYLSGSDLIQCYNFGWYPESPVCEGRRNRCPPPPLPINSKIQTHSTTYRHGEIVHIECELNFEIHGSAEIRCEDGKWTEPPKCIEGQEKVACEEPPFIENGAANLHSKIYYNGDKVTYACKSGYLLHGSNEITCNRGKWTLPPECVENNENCKHPPVVMNGAVADGILASYATGSSVEYRCNEYYLLRGSKISRCEQGKWSSPPVCLEPCTVNVDYMNRNNIEMKWKYEGKVLHGDLIDFVCKQGYDLSPLTPLSELSVQCNRGEVKYPLCTRKESKGMCTSPPLIKHGVIISSTVDTYENGSSVEYRCFDHHFLEGSREAYCLDGMWTTPPLCLEPCTLSFTEMEKNNLLLKWDFDNRPHILHGEYIEFICRGDTYPAELYITGSILRMQCDRGQLKYPRCIPRQSTLSYQEPLRT
B2: Galectin-3-binding protein (protein)
chain: VNDGDMRLADGGATNQGRVEIFYRGQWGTVCDNLWDLTDASVVCRALGFENATQALGRAAFGQGSGPIMLDEVQCTGTEASLADCKSLGWLKSNCRHERDAGVVCTNETRSTHTLDLSRELSEALGQIFDSQRGCDLSISVNVQGEDALGFCGHTVILTANLEAQALWKEPGSNVTMSVDAECVPMVRDLLRYFYSRRIDITLSSVKCFHKLASAYGARQLQGYCASLFAILLPQDPSFQMPLDLYAYAVATGDALLEKLCLQFLAWNFEALTQAEAWPSVPTDLLQLLLPRSDLAVPSELALLKAVDTWSWGERASHEEVEGLVEKIRFPMMLPEELFELQFNLSLYWSHEALFQKKTLQALEFHTVPFQLLARYKGLNLTEDTYKPRIYTSPTWSAFVTDSSWSARKSQLVYQSRRGPLVKYSSDYFQAPSDYRYYPYQSFQTPQHPSFLFQDKRVSWSLVYLPTIQSCWNYGFSCSSDELPVLGLTKSGGSDRTIAYENKALMLCEGLFVADVTDFEGWKAAIPSALDTNSSKSTSSFPCPAGHFNGFRTVIRPFYLTNSSGVD
B3: Ig heavy chain V-I region HG3 (protein)
chain: QVQLVQSGAEVKKPGASVKVSCKASGYTFTSYYMHWVRQAPGQGLEWMGIINPSGGSTSYAQKFQGRVTMTRDTSTSTVYMELSSLRSEDTAVYYCAR
B4: Histone H1.3 (protein)
chain: SETAPLAPTIPAPAEKTPVKKKAKKAGATAGKRKASGPPVSELITKAVAASKERSGVSLAALKKALAAAGYDVEKNNSRIKLGLKSLVSKGTLVQTKGTGASGSFKLNKKAASGEGKPKAKKAGAAKPRKPAGAAKKPKKVAGAATPKKSIKKTPKKVKKPATAAGTKKVAKSAKKVKTPQPKKAAKSPAKAKAPKPKAAKPKSGKPKVTKAKKAAPKKK
B5: Caspase-14 (protein)
chain: MSNPRSLEEEKYDMSGARLALILCVTKAREGSEEDLDALEHMFRQLRFESTMKRDPTAEQFQEELEKFQQAIDSREDPVSCAFVVLMAHGREGFLKGEDGEMVKLENLFEALNNKNCQALRAKPKVYIIQACRGEQRDPGETVGGDEIVMVIKDSPQTIPTYTDALHVYSTVEGYIAYRHDQKGSCFIQTLVDVFTKRKGHILELLTEVTRRMAEAELVQEGKARKTNPEIQSTLRKRLYLQ
B6: Ig kappa chain V-I region BAN (protein)
chain: DIQMTQSPSSLSASVGDRVTITCRASQGISNYLAWFQQKPGKAPKSLIYAASSLQSGVPSKFSGSGSGTDFTLTISSLQPEDFATYYCQQYNSYP
B7: Isoform 1B of Desmocollin-1 (protein)
chain: RWAPIPASLMENSLGPFPQHVQQIQSDAAQNYTIFYSISGPGVDKEPFNLFYIEKDTGDIFCTRSIDREKYEQFALYGYATTADGYAPEYPLPLIIKIEDDNDNAPYFEHRVTIFTVPENCRSGTSVGKVTATDLDEPDTLHTRLKYKILQQIPDHPKHFSIHPDTGVITTTTPFLDREKCDTYQLIMEVRDMGGQPFGLFNTGTITISLEDENDNPPSFTETSYVTEVEENRIDVEILRMKVQDQDLPNTPHSKAVYKILQGNENGNFIISTDPNTNEGVLCVVKPLNYEVNRQVILQVGVINEAQFSKAASSQTPTMCTTTVTVKIIDSDEGPECHPPVKVIQSQDGFPAGQELLGYKALDPEISSGEGLRYQKLGDEDNWFEINQHTGDLRTLKVLDRESKFVKNNQYNISVVAVDAVGRSCTGTLVVHLDDYNDHAPQIDKEVTICQNNEDFAVLKPVDPDGPENGPPFQFFLDNSASKNWNIEEKDGKTAILRQRQNLDYNYYSVPIQIKDRHGLVATHMLTVRVCDCSTPSECRMKDKSTRDVRPNVILGRWAILAMVLGSVLLLCILFTCFCVTAKRTVKKCFPEDIAQQNLIVSNTEGPGEEVTEANIRLPMQTSNICDTSMSVGTVGGQGIKTQQSFEMVKGGYTLDSNKGGGHQTLESVKGVGQGDTGRYAYTDWQSFTQPRLGEESIRGHTLIKN
B8: Complement factor H-related protein 1 (protein)
chain: EATFCDFPKINHGILYDEEKYKPFSQVPTGEVFYYSCEYNFVSPSKSFWTRITCTEEGWSPTPKCLRLCFFPFVENGHSESSGQTHLEGDTVQIICNTGYRLQNNENNISCVERGWSTPPKCRSTDTSCVNPPTVQNAHILSRQMSKYPSGERVRYECRSPYEMFGDEEVMCLNGNWTEPPQCKDSTGKCGPPPPIDNGDITSFPLSVYAPASSVEYQCQNLYQLEGNKRITCRNGQWSEPPKCLHPCVISREIMENYNIALRWTAKQKLYLRTGESAEFVCKRGYRLSSRSHTLRTTCWDGKLEYPTCAKR
B9: Isoform 2 of Arginase-1 (protein)
chain: MSAKSRTIGIIGAPFSKGQPRGGVEEGPTVLRKAGLLEKLKEQVTQNFLILECDVKDYGDLPFADIPNDSPFQIVKNPRSVGKASEQLAGKVAEVKKNGRISLVLGGDHSLAIGSISGHARVHPDLGVIWVDAHTDINTPLTTTSGNLHGQPVSFLLKELKGKIPDVPGFSWVTPCISAKDIVYIGLRDVDPGEHYILKTLGIKYFSMTEVDRLGIGKVMEETLSYLLGRKKRPIHLSFDVDGLDPSFTPATGTPVVGGLTYREGLYITEEIYKTGLLSGLDIMEVNPSLGKTPEEVTRTVNTAVAITLACFGLAREGNHKPIDYLNPPK

Key:
Assay in all cases: Mass spectroscopy proteomics, semi-quantitative binding affinity of serum proteins (plaqueproteome, Table 2)
Conditions in all cases: higher number = stronger affinity
[1] = tested on: Low density cholesterol (Chl small) plaque particles; parameters: species or system human
In short: (§1)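 Serum or plasma from atherosclerotic subjects, as 50% serum, was incubated with 30 μg cholesterol aggregates for 1 h at 37 °C. High- and low-density particles were then flow-sorted, trypsin-digested and analysed by MS/MS. Proteins were identified by Sequest search against human UniProt and validated with Protein Prophet.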

[2] = tested on: High Density cholesterol (Chl Large) plaque particles; parameters: species or system human
In short: as §1

[3] = biological target: T1, alpha-synuclein plaque particles (Homo sapiens, UniProt P37840)
T1 construct: 140 amino acids polypeptide
In short: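 AD-subject plasma or serum (800 μL of 50%) mixed with 30 μg preformed alpha-synuclein aggregates for 1 h at 37 °C; Thioflavin S-positive particles isolated by flow sorting. After reduction, acrylamide alkylation and overnight tryptic digestion, serum proteins identified by MS/MS with Sequest and Scaffold.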

[4] = biological target: T2, Abeta-42 plaque particles (Homo sapiens, UniProt P05067)
T2 construct: Abeta 1-42
In short: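 AD patient serum or plasma (50% in PBS) was incubated with Abeta-42 aggregates (30 μg) for 1 h at 37 °C, then stained with Thioflavin S for 30 min. Labeled particles were FACS-sorted, trypsin/Lys-C digested overnight and analyzed by MS/MS. Sequest searched human UniProt; Scaffold/Protein Prophet validated the identifications.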

[5] = tested on: Tau plaque particles; parameters: species or system human
In short: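 Synthetic Tau-74 and Tau-275 peptides (1 mg/mL PBS, 37° C, 2 h) aggregated; 30 μg aggregates incubated with 50% serum/plasma 1 h at 37° C, stained with Thioflavin S, and plaque particles sorted by flow cytometry. Bound proteins trypsin-digested and identified by MS/MS against human UniProt.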

Molecule | Semi-quantitative analysis of proteins binding to different plaque particles: Chl small [1] | Semi-quantitative analysis of proteins binding to different plaque particles: Chl Large [2] | Semi-quantitative analysis of proteins binding to different plaque particles: Synuclein [3] | Semi-quantitative analysis of proteins binding to different plaque particles: Abeta-42 [4] | Semi-quantitative analysis of proteins binding to different plaque particles: Tau [5]
B1 | 1 | 0 | 0 | 0 | 0
B2 | 0 | 1 | 0 | 0 | 0
B3 | 1 | 1 | 2 | 2 | 1
B4 | 0 | 0 | 0 | 2 | 0
B5 | 0 | 0 | 0 | 5 | 0
B6 | 1 | 2 | 1 | 2 | 2
B7 | 0 | 0 | 0 | 4 | 0
B8 | 1 | 2 | 0 | 0 | 1
B9 | 0 | 0 | 0 | 2 | 0
